Source: patent US20090286858A1, “ASSAYS FOR MODULATORS OF ASPARAGINYL HYDROXYLASE” (ISIS INNOVATION LIMITED, priority 2002, published 2009)
Read-outs that look alike come from different tables or passages of the source. Each block holds one molecule with its values, some of them ahead of it. Where no end group is shown, it is not given here.

Legend:
Assay type in all cases: biochemical
FIH [1] = target: T1, FIH (Homo sapiens, UniProt Q9NWT6); test: FIH 2-OG decarboxylation (CO2 release) assay with HIF-1α polypeptide substrates; details: for % activity relative to 775-826 peptide: same conditions; for % activity relative to 775-826 peptide / CO2 released: polypeptide as FIH substrate; for CO2 released: standard assay conditions
T1 construct: His6 (N, cleaved yes); made in house; host or cells: Escherichia coli BL21(DE3)
Experimental: (§1) FIH assays—Assays for decarboxylation of 2-OG were performed using radiolabelled 2-OG (New England Nuclear) as reported in Epstein et al supra. Incubations contained ascorbate, DTT, catalase, 2-OG, FIH, and substrate in 50 mM Tris/HCl pH7.4, and were carried out at 37° C. typically for 20 minutes. HPLC separations were achieved on a Phenomenex Jupiter C4 (10 cm×4.6 mm) column by using of a linear gradient of CH3CN in 0.1% TFA. For inhibition and metal dependence assays, GST HIF-1α 775-826 was used as substrate at 30 μM, and with iron (II) ammonium sulfate, cobalt (II) chloride, zinc (II) chloride, and N-oxaloylglycine at final concentrations of 0, 2, 10, 40, 80 and 200 μM. Assays under an atmosphere of ^18O2 were performed as reported in McNeill et al, Bioorg Med Chem Lett, 2002 12, 1547-1550.

FIH [2] = target: T1, FIH; test: FIH inhibition and metal dependence assays (2-OG decarboxylation, GST HIF-1α 775-826 as substrate)
Experimental: as §1
Further characterization of FIH activity—To explore the mechanism of FIH and its relationship to the characteristics of in vivo HIF activation, in vitro analyses of FIH using the purified recombinant protein were performed.

FIH [3] = target: T1, FIH; test: GST pulldown assay: capture of 35S-labelled p300 CH1 by HIF-1α CAD after exposure to FIH; details: for ability to capture CH1 after pre-incubation with FIH: GST-fused polypeptide, 35S-labelled CH1
Experimental: N-oxaloylglycine was added to 5 mM when required. Glutathione Sepharose beads were added for 40 minutes at 25° C. and then washed with 50 mM Tris/HCl pH 7.4, 0.5% NP40, 150 mM NaCl and 1 mM DTT. […] Binding was performed for 1 hour at 25° C. and the beads were then washed in the same buffer. The bound proteins were eluted in SDS running buffer and analyzed by SDS-PAGE and autoradiography.

[4] = in vitro kinetic assays, recombinant FIH, GST HIF-1α 775-826 at 30 μM, read-out: IC50

T1 sequence (Q9NWT6 with tags, fused parts or gaps): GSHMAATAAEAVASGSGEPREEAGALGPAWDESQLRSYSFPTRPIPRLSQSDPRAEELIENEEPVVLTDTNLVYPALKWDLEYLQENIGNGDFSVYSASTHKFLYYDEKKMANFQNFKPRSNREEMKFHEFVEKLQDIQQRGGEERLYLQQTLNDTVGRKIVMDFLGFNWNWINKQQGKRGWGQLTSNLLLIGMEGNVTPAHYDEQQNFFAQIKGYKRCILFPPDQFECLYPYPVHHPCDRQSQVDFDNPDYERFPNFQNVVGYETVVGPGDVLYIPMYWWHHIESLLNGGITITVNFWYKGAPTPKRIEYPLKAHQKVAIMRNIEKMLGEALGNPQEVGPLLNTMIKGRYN

Molecule: 2-oxoglutarate [2-OG, reference compound]
Km (FIH [1]; preliminary kinetic parameter, with free HIF-1α 775-826 peptide, 2-OG turnover assay, read-out: Km(2-OG)): 10 µM

Molecule: [Cl-].[Cl-].[Co+2] [Cobalt (II), cobalt (II) chloride]
IC50 (FIH [2]; [4]): 10 µM

IC50 (FIH [2]): 25 µM
inhibition of FIH effect on CH1 capture by HIF-1α CAD (FIH [3]; N-oxaloylglycine 5 mM in FIH/HIF-1α CAD reaction step): inhibited the effect of FIH
Molecule: O=C(O)CNC(=O)C(=O)O [N-oxaloylglycine, reference compound]

Molecule: O=S(=O)([O-])[O-].O=S(=O)([O-])[O-].[Fe+2].[NH4+].[NH4+] [iron (II), iron (II) ammonium sulfate]
effect of exogenous metal on FIH activity (FIH [2]; added to purified FIH/HIF-1α CAD assay): no further increase in activity

Molecule: [Cl-].[Cl-].[Zn+2] [zinc (II), zinc (II) chloride]
IC50 (FIH [2]; [4]): 10 µM

% activity relative to 775-826 peptide (FIH [1]): 67%
CO2 released (FIH [1]): 0.81 nmol
Molecule: GST HIF-1α 577-826: GST tagged fusion of human HIF-1α residues 577-826

% activity relative to 775-826 peptide (FIH [1]): <0.01%
CO2 released (FIH [1]): <0.001 nmol
ability to capture CH1 after pre-incubation with FIH (FIH [3]): unaffected
Molecule: GST HIF-1α 775-826 N803A: GST HIF-1α 775-826 with Asn-803 mutated to alanine (PSDLACRLLGQSMDESGLPQLTSYDCEVAAPIQGSRNLLQGEELLRALDQVN; cysteine pairing not given here; also: GST fusion, not in chain)

% activity relative to 775-826 peptide (FIH [1]): 7%
CO2 released (FIH [1]): 0.22 nmol
Molecule: GST HIF-1α 775-826 N803D: GST HIF-1α 775-826 with Asn-803 mutated to aspartate (PSDLACRLLGQSMDESGLPQLTSYDCEVDAPIQGSRNLLQGEELLRALDQVN; cysteine pairing not given here; also: GST fusion, not in chain; UniProt Q16665 775-826, looked up, variant N803D)
2-OG turnover relative to the analogous Asn-803 substrate (FIH [1]; GST HIF-1α 775-826 mutant): ≤ 7%

% activity relative to 775-826 peptide (FIH [1]): <0.01%
CO2 released (FIH [1]): <0.001 nmol
Molecule: GST HIF-1α 775-826 N803E: GST HIF-1α 775-826 with Asn-803 mutated to glutamate (PSDLACRLLGQSMDESGLPQLTSYDCEVEAPIQGSRNLLQGEELLRALDQVN; cysteine pairing not given here; also: GST fusion, not in chain; UniProt Q16665 775-826, looked up, variant N803E)

% activity relative to 775-826 peptide (FIH [1]): <0.01%
CO2 released (FIH [1]): <0.001 nmol
Molecule: GST HIF-1α 775-826 N803Q: GST HIF-1α 775-826 with Asn-803 mutated to glutamine (PSDLACRLLGQSMDESGLPQLTSYDCEVQAPIQGSRNLLQGEELLRALDQVN; cysteine pairing not given here; also: GST fusion, not in chain; UniProt Q16665 775-826, looked up, variant N803Q)

% activity relative to 775-826 peptide (FIH [1]): 96%
CO2 released (FIH [1]): 2.7 nmol
ability to capture CH1 after pre-incubation with FIH (FIH [3]): strikingly reduced
Molecule: GST HIF-1α 775-826: N-terminal glutathione S-transferase tagged fusion of human HIF-1α residues 775-826 (CAD)

% activity relative to 775-826 peptide (FIH [1]): 100%
CO2 released (FIH [1]): 2.8 nmol
Molecule: HIF-1α 775-826: free polypeptide encompassing the human HIF-1α CAD (residues 775-826), GST tag removed
Vmax (FIH [1]; preliminary kinetic parameter, 2-OG turnover assay): 0.3 µmol/min/mg
Km (FIH [1]; preliminary kinetic parameter, 2-OG turnover assay, read-out: Km(peptide)): 10 µM

% activity relative to 775-826 peptide (FIH [1]): <0.01%
CO2 released (FIH [1]): <0.001 nmol
B1: His6-HIF-1α 344-503: His6-tagged section of HIF-1α, residues 344-503 (protein)
chain: GIIQHDLIFSLQQTECVLKPVESSDMKMTQLFTKVESEDTSSLFDKLKKEPDALTLLAPAAGDTIISLDFGSNDTETDDQQLEEVPLYNDVMLPSPNEKLQNINLAMSPLPTAETPKPLRSSADPALNQEVALKLEPNPESLELSFTMPQIQDQTPSPSD
modifications: left off: small tags and cut ends

% activity relative to 775-826 peptide (FIH [1]): <0.01%
CO2 released (FIH [1]): <0.001 nmol
B2: His6-HIF-1α 530-698: His6-tagged section of HIF-1α, residues 530-698 (protein)
chain: EFKLELVEKLFAEDTEAKNPFSTQDTDLDLEMLAPYIPMDDDFQLRSFDQLSPLESSSASPESASPQSTVTVFQQTQIQEPTANATTTTATTDELKTVTKDRMEDIKILIASPSPTHIHKETTSATSSPYRDTQSRTASPNRAGKGVIEQTEKSHPRSPNVLSVALSQR
modifications: left off: small tags and cut ends

% activity relative to 775-826 peptide (FIH [1]): 1.8%
CO2 released (FIH [1]): 0.05 nmol
B3: GST HIF-1α 530-652: GST tagged fusion of human HIF-1α residues 530-652 (protein)
chain: EFKLELVEKLFAEDTEAKNPFSTQDTDLDLEMLAPYIPMDDDFQLRSFDQLSPLESSSASPESASPQSTVTVFQQTQIQEPTANATTTTATTDELKTVTKDRMEDIKILIASPSPTHIHKETT
modifications: left off: a dimerising Fc or GST
